From patent publication US20210221917A1
pEC50: −log10 of the molar value.

Assays:
[1] = target: FcyRIIb (UniProt P31994); assay: cell-based competitive TR-FRET assay (CisBio Bioassays); reference: Construct 5 (SIF3)
[2] = target: FcyRIIIa (UniProt P08637); assay: cell-based competitive TR-FRET
[3] = target: FcyRIIa (UniProt P12318); assay: cell-based competitive TR-FRET
[4] = target: FcyRIIb (UniProt P31994); assay: cell-based competitive TR-FRET
[5] = target: FcγRIIb (UniProt P31994); assay: cell-based competitive TR-FRET
[6] = target: FcγRIIIa (UniProt P08637); assay: cell-based competitive TR-FRET
[7] = target: FcγRIIa (UniProt P12318); assay: cell-based competitive TR-FRET

| fold increase in binding compared to Construct 5 (SIF3) [1] [fold] | pEC50 [2] | pEC50 [3] | pEC50 [4] | pEC50 [5] | pEC50 [6] | pEC50 [7] | Substance |
| --- | --- | --- | --- | --- | --- | --- | --- |
| > 300 | 7.57 | 9.90 | 10.78 |  |  |  | Construct 5-FcyRIIb+ mutant (Construct 5 backbone with S267E/L328F) (from UniProt P01857 27-328; P0DOX5 223-449) |
|  |  |  |  | 5.77 | 7.02 | 6.30 | IgG1 |
